Measured values published in patent publication US20260242447A1.

Biological target: SARS-CoV-2 spike protein (full length) (SARS-CoV-2) (UniProt P0DTC2)
Assay: ELISA, GRP78-HRP on plate-bound spike protein

Chain of GRP78 (soluble / recombinant protein), P11021 19-654 (other; other documents disagree on this pair) (P11021 19-654 limits assumed): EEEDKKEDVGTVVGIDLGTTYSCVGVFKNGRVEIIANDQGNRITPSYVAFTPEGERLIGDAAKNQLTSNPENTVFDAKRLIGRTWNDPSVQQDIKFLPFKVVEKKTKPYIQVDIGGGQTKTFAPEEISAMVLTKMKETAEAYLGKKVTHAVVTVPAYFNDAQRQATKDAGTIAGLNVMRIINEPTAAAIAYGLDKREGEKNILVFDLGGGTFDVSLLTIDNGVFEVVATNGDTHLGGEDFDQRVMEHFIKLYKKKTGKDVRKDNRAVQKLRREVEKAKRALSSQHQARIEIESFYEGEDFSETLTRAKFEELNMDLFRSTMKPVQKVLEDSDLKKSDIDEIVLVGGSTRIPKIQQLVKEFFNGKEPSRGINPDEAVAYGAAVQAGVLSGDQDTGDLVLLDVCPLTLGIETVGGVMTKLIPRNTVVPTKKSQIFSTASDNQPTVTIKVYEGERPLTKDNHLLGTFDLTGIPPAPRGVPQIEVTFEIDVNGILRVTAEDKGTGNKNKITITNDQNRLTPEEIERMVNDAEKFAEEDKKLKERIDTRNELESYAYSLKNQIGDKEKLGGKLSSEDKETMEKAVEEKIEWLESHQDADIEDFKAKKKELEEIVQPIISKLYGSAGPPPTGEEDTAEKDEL

GRP78 (soluble / recombinant protein), P11021 19-654 (other; other documents disagree on this pair)
Kd: 293 nM
